Laboratory results taken from the supplement of paper PMC10065799, “High-throughput profiling of sequence recognition by tyrosine kinases and SH2 domains using bacterial peptide display” (eLife, 2023).

What was measured:
AncSZ = experiment: phosphorylation enrichment, bacterial display (enrichment ratio); higher = better substrate or ligand; peptides without Tyr show the background
EPHB1 = EPHB1 (UniProt P54762); experiment: as above
EPHB2 = EPHB2 (UniProt P29323); experiment: as above
FGFR1 = FGFR1 (UniProt P11362); experiment: as above
FGFR1, sequence (P11362 whole entry, looked up): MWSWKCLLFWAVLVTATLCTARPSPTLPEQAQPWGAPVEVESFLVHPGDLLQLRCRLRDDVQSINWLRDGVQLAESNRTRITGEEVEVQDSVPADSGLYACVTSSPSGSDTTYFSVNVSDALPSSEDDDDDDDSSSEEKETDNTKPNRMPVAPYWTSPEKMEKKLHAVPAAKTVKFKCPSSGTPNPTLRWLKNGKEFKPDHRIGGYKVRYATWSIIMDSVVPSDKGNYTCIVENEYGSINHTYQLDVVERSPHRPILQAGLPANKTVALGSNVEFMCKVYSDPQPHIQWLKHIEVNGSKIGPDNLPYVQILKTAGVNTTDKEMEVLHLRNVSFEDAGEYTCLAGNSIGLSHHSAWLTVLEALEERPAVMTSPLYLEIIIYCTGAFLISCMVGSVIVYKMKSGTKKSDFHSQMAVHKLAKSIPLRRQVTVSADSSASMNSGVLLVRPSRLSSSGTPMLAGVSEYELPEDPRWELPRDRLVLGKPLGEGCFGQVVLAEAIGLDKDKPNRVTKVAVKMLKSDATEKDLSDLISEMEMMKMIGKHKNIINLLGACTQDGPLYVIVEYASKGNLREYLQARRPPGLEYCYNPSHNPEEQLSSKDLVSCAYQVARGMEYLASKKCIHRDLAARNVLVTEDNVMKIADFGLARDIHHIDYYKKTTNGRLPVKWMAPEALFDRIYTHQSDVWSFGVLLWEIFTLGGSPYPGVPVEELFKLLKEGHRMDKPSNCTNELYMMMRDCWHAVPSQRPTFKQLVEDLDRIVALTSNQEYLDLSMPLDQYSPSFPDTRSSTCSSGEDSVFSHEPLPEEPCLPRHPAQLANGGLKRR

FGFR3 = FGFR3 (UniProt P22607); experiment: as above
Fer (mouse) = experiment: as above
Fes = Fes (UniProt P07332); experiment: as above
Fes, sequence (P07332 whole entry, looked up): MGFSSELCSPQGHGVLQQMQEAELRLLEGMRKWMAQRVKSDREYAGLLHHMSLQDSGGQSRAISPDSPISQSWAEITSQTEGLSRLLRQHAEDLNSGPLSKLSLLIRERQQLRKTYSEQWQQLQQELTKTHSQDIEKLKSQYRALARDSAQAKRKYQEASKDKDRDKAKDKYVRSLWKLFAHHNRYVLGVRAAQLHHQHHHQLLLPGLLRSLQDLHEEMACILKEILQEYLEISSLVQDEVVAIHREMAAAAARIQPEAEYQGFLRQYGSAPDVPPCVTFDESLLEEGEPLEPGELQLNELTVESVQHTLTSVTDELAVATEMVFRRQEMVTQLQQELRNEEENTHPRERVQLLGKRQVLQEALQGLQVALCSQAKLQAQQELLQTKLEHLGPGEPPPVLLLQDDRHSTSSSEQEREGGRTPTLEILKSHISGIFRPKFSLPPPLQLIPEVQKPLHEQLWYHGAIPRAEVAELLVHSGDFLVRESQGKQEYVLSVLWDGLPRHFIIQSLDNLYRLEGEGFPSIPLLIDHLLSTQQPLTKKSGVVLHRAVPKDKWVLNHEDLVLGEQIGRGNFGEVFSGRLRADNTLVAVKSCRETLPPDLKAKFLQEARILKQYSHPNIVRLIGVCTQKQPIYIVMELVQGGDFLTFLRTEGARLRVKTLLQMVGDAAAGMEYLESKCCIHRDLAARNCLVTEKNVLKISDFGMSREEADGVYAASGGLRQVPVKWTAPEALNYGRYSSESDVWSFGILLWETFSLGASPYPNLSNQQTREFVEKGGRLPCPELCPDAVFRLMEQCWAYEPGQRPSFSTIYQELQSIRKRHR

Fyn = Fyn (UniProt P06241); experiment: as above
Fyn, sequence (P06241 whole entry, looked up): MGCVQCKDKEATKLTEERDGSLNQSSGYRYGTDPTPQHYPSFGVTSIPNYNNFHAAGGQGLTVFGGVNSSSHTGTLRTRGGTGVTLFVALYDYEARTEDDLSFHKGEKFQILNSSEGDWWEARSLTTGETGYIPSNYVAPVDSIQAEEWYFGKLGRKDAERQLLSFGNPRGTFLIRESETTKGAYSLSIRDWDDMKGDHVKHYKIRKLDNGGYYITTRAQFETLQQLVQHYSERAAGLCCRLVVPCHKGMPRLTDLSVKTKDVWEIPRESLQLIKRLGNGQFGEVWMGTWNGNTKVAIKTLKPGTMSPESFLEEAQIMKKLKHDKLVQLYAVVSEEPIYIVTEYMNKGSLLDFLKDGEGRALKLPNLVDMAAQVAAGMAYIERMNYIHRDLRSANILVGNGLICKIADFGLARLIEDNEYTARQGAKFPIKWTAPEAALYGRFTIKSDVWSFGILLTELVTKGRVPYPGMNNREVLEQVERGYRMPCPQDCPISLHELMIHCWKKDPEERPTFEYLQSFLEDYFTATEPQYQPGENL

Hck = Hck (UniProt P08631); experiment: as above
Hck, sequence (P08631 whole entry, looked up): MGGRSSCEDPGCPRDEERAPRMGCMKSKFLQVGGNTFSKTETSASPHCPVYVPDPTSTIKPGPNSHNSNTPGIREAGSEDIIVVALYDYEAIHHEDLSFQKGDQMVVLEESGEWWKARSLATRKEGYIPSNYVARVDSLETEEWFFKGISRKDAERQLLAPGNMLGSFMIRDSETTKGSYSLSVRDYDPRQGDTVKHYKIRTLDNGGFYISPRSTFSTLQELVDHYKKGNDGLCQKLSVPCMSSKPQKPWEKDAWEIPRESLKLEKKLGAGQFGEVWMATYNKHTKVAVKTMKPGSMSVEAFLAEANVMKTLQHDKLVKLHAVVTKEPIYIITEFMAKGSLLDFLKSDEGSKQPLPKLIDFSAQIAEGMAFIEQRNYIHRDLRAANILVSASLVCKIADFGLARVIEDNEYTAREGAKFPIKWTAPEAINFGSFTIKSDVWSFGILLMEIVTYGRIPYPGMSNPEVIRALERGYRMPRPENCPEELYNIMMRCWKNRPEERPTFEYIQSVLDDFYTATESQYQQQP

Jak2 = Jak2 (UniProt O60674); experiment: as above
MERTK = MERTK (UniProt Q12866); experiment: as above
MERTK, sequence (Q12866 whole entry, looked up): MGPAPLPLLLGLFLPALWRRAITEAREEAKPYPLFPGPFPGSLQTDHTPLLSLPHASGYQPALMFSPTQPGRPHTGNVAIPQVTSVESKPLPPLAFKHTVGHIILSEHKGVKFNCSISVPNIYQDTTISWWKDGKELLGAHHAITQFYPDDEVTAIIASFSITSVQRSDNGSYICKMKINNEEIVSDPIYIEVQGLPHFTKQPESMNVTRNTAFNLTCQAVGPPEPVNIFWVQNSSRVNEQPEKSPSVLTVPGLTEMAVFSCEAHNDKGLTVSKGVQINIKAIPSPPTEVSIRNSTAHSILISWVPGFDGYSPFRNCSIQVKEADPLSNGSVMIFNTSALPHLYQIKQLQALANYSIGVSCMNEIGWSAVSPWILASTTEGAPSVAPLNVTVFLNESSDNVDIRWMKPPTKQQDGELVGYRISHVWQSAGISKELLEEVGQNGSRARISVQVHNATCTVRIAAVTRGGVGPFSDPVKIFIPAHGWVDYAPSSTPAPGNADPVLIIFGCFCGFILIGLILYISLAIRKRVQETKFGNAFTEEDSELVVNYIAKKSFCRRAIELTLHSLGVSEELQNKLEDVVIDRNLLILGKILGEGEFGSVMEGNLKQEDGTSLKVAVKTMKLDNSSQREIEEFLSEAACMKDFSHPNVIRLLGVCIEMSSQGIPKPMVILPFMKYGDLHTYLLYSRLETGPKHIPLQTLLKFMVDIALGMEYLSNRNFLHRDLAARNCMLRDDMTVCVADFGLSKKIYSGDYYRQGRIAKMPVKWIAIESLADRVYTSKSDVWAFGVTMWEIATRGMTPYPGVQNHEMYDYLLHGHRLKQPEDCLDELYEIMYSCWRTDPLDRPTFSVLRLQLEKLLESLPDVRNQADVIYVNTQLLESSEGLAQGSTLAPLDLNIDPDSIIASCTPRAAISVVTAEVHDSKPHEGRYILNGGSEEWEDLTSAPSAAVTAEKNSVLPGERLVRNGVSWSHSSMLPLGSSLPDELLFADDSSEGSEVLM

c-Abl (mouse) = experiment: as above
c-Src = experiment: as above
Grb2 SH2 = Grb2 SH2 (UniProt P62993); experiment: SH2 binding enrichment of the phosphorylated peptide, bacterial display (enrichment ratio); higher = better substrate or ligand; peptides without Tyr show the background
Grb2 SH2, sequence (P62993 whole entry, looked up): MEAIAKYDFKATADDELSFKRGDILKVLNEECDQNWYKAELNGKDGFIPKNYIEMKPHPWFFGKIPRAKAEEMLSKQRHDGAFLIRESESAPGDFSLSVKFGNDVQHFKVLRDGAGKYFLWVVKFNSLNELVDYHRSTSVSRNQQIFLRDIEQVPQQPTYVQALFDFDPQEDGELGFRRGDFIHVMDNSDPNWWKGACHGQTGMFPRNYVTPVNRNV

SHP2-C SH2 = experiment: as above
c-Src SH2 = experiment: as above
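For SH2 binding enrichment of the phosphorylated peptide, bacterial display in this document: peptide library displayed on the E. coli surface as eCPX fusions, selected cells deep-sequenced, score is each peptide's frequency after selection divided by its frequency in the input.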
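For phosphorylation enrichment, bacterial display in this document: 11-residue human phosphosite peptides and single-mutation variants displayed on the E. coli surface, counted by deep sequencing, each peptide's frequency after selection divided by its frequency in the unselected input library; frequency after pTyr selection over input frequency; kinase dosed for 20-30% of maximal phosphorylation in three min.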

EPHB2, sequence (P29323 whole entry, looked up): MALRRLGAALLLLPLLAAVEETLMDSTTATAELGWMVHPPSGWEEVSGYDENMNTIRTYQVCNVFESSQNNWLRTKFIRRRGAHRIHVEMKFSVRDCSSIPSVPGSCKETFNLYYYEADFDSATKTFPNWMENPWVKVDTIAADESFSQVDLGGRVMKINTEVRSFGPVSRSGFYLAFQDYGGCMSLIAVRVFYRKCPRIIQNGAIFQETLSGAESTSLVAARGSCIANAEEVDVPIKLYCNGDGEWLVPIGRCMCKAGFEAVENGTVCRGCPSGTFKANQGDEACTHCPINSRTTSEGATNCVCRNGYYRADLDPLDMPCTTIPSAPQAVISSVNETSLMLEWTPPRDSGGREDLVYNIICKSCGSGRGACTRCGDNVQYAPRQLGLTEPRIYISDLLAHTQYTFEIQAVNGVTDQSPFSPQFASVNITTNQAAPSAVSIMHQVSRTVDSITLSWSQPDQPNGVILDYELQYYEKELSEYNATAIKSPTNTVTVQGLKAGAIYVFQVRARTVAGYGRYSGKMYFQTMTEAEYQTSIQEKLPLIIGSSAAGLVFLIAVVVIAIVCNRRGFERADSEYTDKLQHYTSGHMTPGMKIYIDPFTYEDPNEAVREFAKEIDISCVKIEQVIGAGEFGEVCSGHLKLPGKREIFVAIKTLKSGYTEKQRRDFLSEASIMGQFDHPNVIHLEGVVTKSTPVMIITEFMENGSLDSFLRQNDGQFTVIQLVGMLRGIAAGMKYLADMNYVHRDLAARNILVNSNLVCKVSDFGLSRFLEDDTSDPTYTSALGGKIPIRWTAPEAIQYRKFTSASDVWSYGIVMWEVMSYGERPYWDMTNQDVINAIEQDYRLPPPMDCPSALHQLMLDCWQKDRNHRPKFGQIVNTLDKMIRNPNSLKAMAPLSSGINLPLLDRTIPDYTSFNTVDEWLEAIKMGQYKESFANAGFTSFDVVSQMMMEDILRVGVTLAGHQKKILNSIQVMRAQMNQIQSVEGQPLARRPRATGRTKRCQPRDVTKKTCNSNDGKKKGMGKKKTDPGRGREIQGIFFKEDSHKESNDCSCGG

Sequence | phosphorylation enrichment (AncSZ) | phosphorylation enrichment (EPHB1) | phosphorylation enrichment (EPHB2) | phosphorylation enrichment (FGFR1) | phosphorylation enrichment (FGFR3) | phosphorylation enrichment (Fer (mouse)) | phosphorylation enrichment (Fes) | phosphorylation enrichment (Fyn) | phosphorylation enrichment (Hck) | phosphorylation enrichment (Jak2) | phosphorylation enrichment (MERTK) | phosphorylation enrichment (c-Abl (mouse)) | phosphorylation enrichment (c-Src) | SH2 binding enrichment (Grb2 SH2) | SH2 binding enrichment (SHP2-C SH2) | SH2 binding enrichment (c-Src SH2)
FAFQLYDLDRD [CHP2_Y123_YF] | 1.06 | 1.23 | 0.673 | 0.467 | 0.68 | 0.631 | 1.37 | 1.2 | 1.03 | 1.13 | 0.694 | 0.823 | 2.17 | 0.991 | 0.885 | 0.923
FDEFRYRSFIK [CFTR_Y517_V520F_YF] | 0.775 | 0.417 | 0.39 | 0.498 | 0.526 | 0.556 | 0.764 | 0.467 | 0.511 | 0.497 | 0.422 | 0.454 | 0.419 | 0.702 | 0.41 | 0.414
FEKNVYVDKNL [PTCHD3_Y688] | 0.615 | 0.36 | 0.406 | 0.419 | 0.461 | 0.437 | 0.894 | 0.405 | 0.505 | 0.732 | 0.411 | 0.616 | 0.446 | 0.962 | 0.543 | 0.542
FFLGAYDRFLP [SLC22A5_Y486_V481F_YF] | 1.5 | 0.756 | 1.13 | 0.503 | 0.782 | 1.04 | 1.46 | 1.99 | 3.38 | 1.02 | 3.38 | 0.842 | 3.75 | 1.15 | 1.74 | 1.25
FGSVMYEFVGK [SLC18A1_Y251] | 2.6 | 5.8 | 3.28 | 1.35 | 1.35 | 15.1 | 1.76 | 2.57 | 8.76 | 1.38 | 11.1 | 1.3 | 3.48 | 0.684 | 0.445 | 0.591
FHIDHYLGKEM [G6PD_Y202_R198H_YF] | 0.556 | 0.438 | 0.553 | 0.53 | 0.481 | 0.342 | 0.688 | 0.39 | 0.503 | 0.467 | 0.331 | 0.415 | 0.334 | 1.33 | 0.787 | 0.778
FIGVTYKNKED [PDGFRA_Y993_E996K_YF] | 0.776 | 0.422 | 0.582 | 0.458 | 0.743 | 0.417 | 0.922 | 0.495 | 0.427 | 0.797 | 0.386 | 0.567 | 0.426 | 1.08 | 0.996 | 0.566
FIPSNYVAEDR [FRK_Y104_YF] | 0.74 | 0.386 | 0.443 | 0.412 | 0.502 | 0.427 | 0.657 | 0.394 | 0.411 | 0.564 | 0.399 | 0.431 | 0.42 | 0.82 | 0.868 | 0.579
FKELVYETVRV [FSHB_Y76] | 2.11 | 10.2 | 9.8 | 3.22 | 1.57 | 18.5 | 6.92 | 11.2 | 12.4 | 0.894 | 9.94 | 18 | 8.98 | 0.751 | 0.961 | 0.77
FLAVGYHKPFI [IDS_Y225_H229Y_YF] | 0.701 | 0.359 | 0.416 | 0.381 | 0.647 | 0.435 | 0.8 | 0.38 | 0.456 | 1.29 | 0.428 | 3.35 | 0.39 | 1.14 | 1.19 | 1.45
FLAVGYHKTHI [IDS_Y225_P228T] | 0.784 | 0.548 | 0.484 | 0.429 | 0.649 | 0.447 | 0.946 | 0.477 | 0.469 | 0.971 | 0.441 | 0.638 | 0.4 | 1.23 | 1.37 | 1.03
FLGRDYLETLM [DUS3L_Y610_YF] | 0.849 | 0.47 | 0.459 | 0.48 | 0.686 | 0.591 | 0.957 | 0.422 | 0.401 | 0.748 | 0.471 | 0.685 | 0.428 | 0.878 | 0.96 | 0.563
FLNSIYKSRDE [ROS1_Y2227] | 0.566 | 0.365 | 0.517 | 0.439 | 0.507 | 0.342 | 0.642 | 0.444 | 0.519 | 0.612 | 0.357 | 0.499 | 0.481 | 1 | 0.954 | 0.612
FPCSVYVPDEW [INSR_Y1011] | 1.5 | 0.707 | 0.606 | 0.623 | 0.769 | 0.72 | 1.3 | 0.714 | 0.675 | 1.11 | 0.476 | 1.08 | 1.8 | 0.858 | 1.35 | 1.13
FPDFVYKRIKA [DPYSL2_Y479] | 0.682 | 0.421 | 0.468 | 0.495 | 0.543 | 0.424 | 0.773 | 0.494 | 0.443 | 0.793 | 0.377 | 0.362 | 0.344 | 0.79 | 0.622 | 0.41
FQQLFYLLQTN [IQGAP2_Y890_YF] | 1.51 | 0.884 | 0.796 | 0.514 | 1.26 | 0.561 | 1.5 | 0.608 | 0.688 | 1.34 | 0.867 | 0.897 | 0.779 | 1.2 | 1.47 | 0.892
FQRITYHNWRH [PDE6B_Y556_R552Q_YF] | 0.55 | 0.449 | 0.511 | 0.447 | 0.634 | 0.452 | 0.762 | 0.466 | 0.478 | 0.791 | 0.41 | 0.487 | 0.417 | 1.73 | 1.86 | 1.61

Sequence | phosphorylation enrichment (AncSZ) | phosphorylation enrichment (EPHB1) | phosphorylation enrichment (EPHB2) | phosphorylation enrichment (FGFR1) | phosphorylation enrichment (FGFR3) | phosphorylation enrichment (Fer (mouse)) | phosphorylation enrichment (Fes) | phosphorylation enrichment (Fyn) | phosphorylation enrichment (Hck) | phosphorylation enrichment (Jak2) | phosphorylation enrichment (MERTK) | phosphorylation enrichment (c-Abl (mouse)) | phosphorylation enrichment (c-Src) | SH2 binding enrichment (Grb2 SH2) | SH2 binding enrichment (SHP2-C SH2) | SH2 binding enrichment (c-Src SH2)
FRDMDYRSFPR [RBM10_Y41_YF] | 0.694 | 0.435 | 0.492 | 0.473 | 0.482 | 0.346 | 0.864 | 0.424 | 0.477 | 0.58 | 0.446 | 0.485 | 0.4 | 1.01 | 0.726 | 0.543
FSCLPYRRLAY [SLC52A2_Y305_G306R] | 0.95 | 0.613 | 0.547 | 0.656 | 0.758 | 0.5 | 0.671 | 0.691 | 0.663 | 0.837 | 0.621 | 1.22 | 0.766 | 0.942 | 0.653 | 0.448
FSGKAYADEEQ [CRIM1_Y826_R831Q] | 1.12 | 0.581 | 0.675 | 0.459 | 0.81 | 0.529 | 1.14 | 0.522 | 0.565 | 1.31 | 0.552 | 1.2 | 0.41 | 0.992 | 0.8 | 0.528
FSIDHYLGKEM [G6PD_Y202_R198S_YF] | 1.06 | 0.669 | 0.61 | 0.579 | 0.749 | 0.511 | 1.2 | 0.545 | 0.537 | 1.16 | 0.421 | 0.845 | 0.464 | 0.831 | 0.953 | 0.643
FSQNIYIQNRN [PKP2_Y631_YF] | 0.619 | 0.396 | 0.425 | 0.54 | 0.473 | 0.418 | 0.62 | 0.447 | 0.589 | 0.517 | 0.383 | 0.459 | 0.45 | 0.964 | 0.843 | 0.864
FSSLGYPPPEG [ZSWIM4_Y87_YF] | 0.752 | 0.418 | 0.481 | 0.437 | 0.704 | 0.396 | 0.906 | 0.443 | 0.472 | 0.807 | 0.401 | 0.593 | 0.421 | 0.957 | 0.829 | 0.535
FTFDPYSEEEP [IL2RB_Y387_D391E_YF] | 1.22 | 0.874 | 0.576 | 0.602 | 0.811 | 0.549 | 1.49 | 0.59 | 0.584 | 0.917 | 0.469 | 0.733 | 0.907 | 1.04 | 0.971 | 0.654
FTGDIYSSSNL [LZTR1_Y141_N143S_YF] | 0.748 | 0.782 | 1.03 | 0.494 | 0.588 | 2.31 | 0.652 | 5.8 | 5.66 | 0.588 | 1.7 | 2.35 | 4.35 | 0.793 | 0.567 | 0.476
FVHDNYVIWRT [CPS1_Y1450_R1453W] | 1.28 | 6.57 | 7.37 | 2.79 | 1.8 | 1.26 | 1.16 | 0.577 | 1.26 | 1.11 | 1.45 | 1.14 | 0.721 | 1.11 | 0.847 | 0.827
FVPAAYVKKLD [SPTAN1_Y1020] | 0.791 | 0.43 | 0.472 | 0.505 | 0.767 | 0.348 | 0.89 | 0.43 | 0.445 | 0.731 | 0.356 | 0.651 | 0.49 | 0.756 | 0.605 | 0.384
FVTSMYNEILM [TRPV1_Y310] | 1.16 | 0.765 | 0.596 | 0.641 | 0.932 | 3.38 | 1.38 | 0.647 | 0.957 | 1.39 | 0.756 | 0.832 | 0.693 | 1 | 0.941 | 7.73
GADDSYFTVRS [ZAP70_Y492_A495V_YF] | 1.59 | 0.558 | 0.498 | 3.54 | 2.62 | 0.484 | 1 | 0.604 | 0.968 | 1.73 | 0.468 | 0.665 | 0.846 | 0.854 | 0.625 | 0.645
GAMGHYVLAER [HFE_Y342] | 0.643 | 0.387 | 0.403 | 0.38 | 0.446 | 0.453 | 0.659 | 0.41 | 0.44 | 0.511 | 0.452 | 0.505 | 0.437 | 1.18 | 0.91 | 2.46
GCRSKYVGLWG [KCNQ1_Y184] | 0.61 | 0.41 | 0.456 | 0.432 | 0.506 | 0.408 | 0.708 | 0.38 | 0.363 | 0.605 | 0.463 | 0.511 | 0.452 | 1.01 | 1.05 | 0.779
GDEEDYEEIPG [EGFR_opt_E_2015] | 1.36 | 0.893 | 0.59 | 0.62 | 0.823 | 0.645 | 1.38 | 0.596 | 0.527 | 1.36 | 0.498 | 0.898 | 0.598 | 0.993 | 0.624 | 0.779
GDFFRYLAEVA [YWHAG_Y133_YF] | 1.07 | 0.503 | 0.51 | 0.683 | 0.664 | 0.486 | 1.18 | 0.432 | 0.477 | 0.964 | 0.429 | 0.78 | 0.447 | 0.763 | 0.561 | 0.469
